Measured values published in publication PMC6553756 (PLoS ONE, 2019).

B1: authentic anti-PrP monoclonal antibody 44B1 (IgG-44B1) (antibody, V domains shown)
VH: DVKLVESGEGLVKPGGSLKLSCAASGITFSRYAMSWVRQTPEKRLEWVAYISSGGDYINYADTVKGRFTISRDNARNTLYLQMSSLKSEDTAMYYCTRVTPYWYFDVWGTGTTVTVSS
VL: DIVLTQSPASLGVSLGQRATISCRASESVDSYGNSFMHWYQQKPGQPPKVLIYRASNRESGIPARFSGSGSRTDFTLTINPVEADDVATYYCQQSNEDPYTFGGGTKLEIK
notes: also called mAb 44B1; source: hybridoma, purified IgG; copies: 2 + 2
B2: recombinant Fab of mAb 44B1 (rFab-44B1) (Fab, V domains shown)
VH: B1 VH
VL: B1 VL
notes: source: HEK293T, transfected (IRES plasmid), culture supernatant

Key:
recombinant mouse PrP = target: T1, recombinant mouse PrP (Mus musculus, UniProt P04925); assay: ELISA
T1 construct: also called rMoPrP

[1] = target: T2, cellular prion protein (PrP^C) expressed in the brain of mock-infected mice (Mus musculus, mouse strain not shown, UniProt P04925); assay: immunostaining of cells or tissue; details: one partner purified
T2 construct: source: endogenous, frozen brain sections of mock-infected mice

[2] = target: abnormal isoform prion protein (PrP^Sc) in the brain of Chandler prion-infected mice (Mus musculus, brain, Chandler prion …, UniProt P04925); assay: immunostaining of cells or tissue; details: one partner purified
abnormal isoform prion protein (PrP^Sc) in the brain of Chandler prion-infected mice, sequence (P04925 23-230): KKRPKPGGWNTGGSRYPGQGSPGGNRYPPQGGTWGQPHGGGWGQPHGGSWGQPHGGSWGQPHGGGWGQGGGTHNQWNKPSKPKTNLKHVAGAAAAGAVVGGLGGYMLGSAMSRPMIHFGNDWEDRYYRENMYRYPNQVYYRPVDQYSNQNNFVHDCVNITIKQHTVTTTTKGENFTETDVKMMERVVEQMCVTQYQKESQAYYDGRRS

T1 sequence (P04925 23-230): as above
T2 sequence (P04925 23-230): as above

Binder | binding result (recombinant mouse PrP; both partners purified) | binding result [1] | binding result [2] | binding result (recombinant mouse PrP; one partner purified)
B1 | binds | binds | binds | 
B2 |  |  |  | binds
